# According to the DeepSol protein solubility set:
# Assay: soluble on expression in E. coli; label from the status in PepcDB or PDB records
row,Sequence,soluble on expression in E. coli
1,MSTAKAPTLPASIFRAYDIRGVVGDTLTAETAYWIGRAIGSESLARGEPCVAVGRDGRLSGPELVKQLIQGLVDCGCQVSDVGMVPTPVLYYAANVLEGKSGVMLTGSHNPPDYNGFKIVVAGETLANEQIQALRERIEKNDLASGVGSVEQVDILPRYFKQIRDDIAMAKPMKVVVDCGNGVAGVIAPQLIEALGCSVIPLYCEVDGNFPNHHPDPGKPENLKDLIAKVKAENADLGLAFDGDGDRVGVVTNTGTIIYPDRLLMLFAKDVVSRNPGADIIFDVKCTRRLIALISGYGGRPVMWKTGHSLIKKKMKETGALLAGEMSGHVFFKERWFGFDDGIYSAARLLEILSQDQRDSEHVFSAFPSDISTPEINITVTEDSKFAIIEALQRDAQWGEGNITTLDGVRVDYPKGWGLVRASNTTPVLVLRFEADTEEELERIKTVFRNQLKAVDSSLPVPF,soluble
2,MGSDKIHHHHHHMRIQFGYVAMSMELANASPSKTMTATQFEKIEDHEAGLRKLERIAKTNLHNCLRLLKHNLAYQISFFRLSSKLVPLVNHPLTEGWKYELAIAEELQAVGEFASEHQMRIDFHPDHFVVLNSEAKEITRRSLQTLLYHYKLLKGMEIDPRHRCVLHVGGKKKGVEAGLEQFIENTASIPKSLLSMIMLENDDKSYTIDDVLYLGEKLAIPVVLDIHHHDVLHRSKSLQETWQRIVATWEDSPLPVKIHLSSPLSGEDDPRHHDYINADRFIAFLHEIGADAVDHLHVMIEAKKKDLALFQLMKDLAEYDEITVVSKSAVEFNP,not soluble
3,MIRVIFLDLDKTLLPEYDPEPAIPIVEELKKKGFEIVFNSSKTRAEQEYYREKLNVKGPFIVENGSAIYIPSNYFPFEVPGVKRGEYMVLELGVKVEEIRKALKELEAEYGLKYYGNSTDEEIEKFTKLPKHLIPLAKDREYSETIFLWKREGWEKDLIRKGFKVTMGSRFYAVHGNSDKGKAAKLLLDLYKRVDEVESYAVGDGENDFPMFDVVDFAFLIGDLRHENAENVTSIKDVLKKIAAALEHHHHHH,soluble
4,GSHMKEDQVVAEEPGFQDEEESLFQDIDLLQKHGINVADIKKLKSVGICTIKGIQMTTRRALCNVKGLSEAKVDKIKEAANKLIEPGFLTAFEYSEKRKMVFHITTGSQEFDKLLGGGIESMAITEAFGEFRTGKTQLSHTLCVTAQLPGAGGYPGGKIIFIDTENTFRPDRLRDIADRFNVDHDAVLDNVLYARAYTSEHQMELLDYVAAKFHEEAGIFKLLIIDSIMALFRVDFSGRGELAERQQKLAQMLSRLQKISEEYNVAVFVTNQMTADPGATMTFQADPKKPIGGHILAHASTTRISLRKGRGELRIAKIYDSPEMPENEATFAITAGGIGDAKE,soluble
5,EALLNDSALQSVPIVVPSRGSKLLGATLKTELTQEEVQQTLVDGFFPQVAITDHPVQRNRGALTQMGLPYAQDAGITRHIAAFLSKQAHAQSGGESAQAQDFNPFANMPGMPGSDAAQSADFIKPTAILFNGGVLKSKLLATRLEDTINKWLIEADAEMAKRLTGVDLDLAVASGAAYYGSVRRGQGVRIRGGIASAYYVGIESAMPAIPGMAPPMEALCVAPFGMEEGSSVDVPSQEFGLIIGQPVNFQFFGSTVRRDDLAGTHLDYWAPEELEELPEIQVTLPVSEGRREGEVVPVTLASRVTELGTLYLEAIAADNGQKWHVEFDVREDAKSDSNEEQ,not soluble
6,MYHNSSQKRHWTFSSEEQLARLRADANRKFRCKAVANGKVLPNDPVFLEPHEEMTLCKYYEKRLLEFCSVFKPAMPRSVVGTACMYFKRFYLNNSVMEYHPRIIMLTCAFLACKVDEFNVSSPQFVGNLRESPLGQEKALEQILEYELLLIQQLNFHLIVHNPYRPFEGFLIDLKTRYPILENPEILRKTADDFLNRIALTDAYLLYTPSQIALTAILSSASRAGITMESYLSESLMLKENRTCLSQLLDIMKSMRNLVKKYEPPRSEEVAVLKQKLERCHSAELALNVITKKRKGYEDDDYVSKKSKHEEEEWTDDDLVESL,not soluble
7,MSSPSGSSRTFPQYQSGSGWNAMLPKRTPRTAAPARRHFKSLVIGAGYTGLAAARRLAELQPQDQVLVVDATVAGEGSAGRNSGFLINLPHNTRMSGHHSPLEVARKQIAMLQSGLDWLAQLSGQGGFDCGWDLAGKYHAAATADGEQSLRGALQQYGQWGVAFSELDRDALQAQLGTRYYRFGYHSMNNVFVQPAALIRGLADSLPENVWLMEDNPVLSIDGSGPYKVRTRGGEFTADNVILANNAFARRLGFLRSRLVTIFTYAGVTPVLSPAQQALLGERDQWGVIPANRLGTTLRRISGGRFMVRSAYSYEAEQPLERMEQLLRDSFVRRYPDLAAHDFEYVWSGSTGLTGNGASFVGAIQPGLYASVGCNGAGVIKGTIYGKLLGEQVAGHRSAMLDDLASFEKPNWLPPEPLRRIGALSTIAYQARKAGLEKLEHHHHHH,not soluble
8,MSPEQSPFHAGELAIQERAGVREQVAGFGSRAIRTFMPDQHREFFALLSLLLVGSLDADGYPSASVLWGPPGFARSPEPTRLRIDNLPQADDPLAANLEAGTRLGILGLEWPTRRRNRMNGRVLARDGKGFTVGVEQSFGNCPKYIQARSHQPVSRIASPALQGEGLDPRWLSLVSCSDTLFIASQHADPLRGGVDVSHRGGPPGFLRLGADGRLWLPDYAGNRLFNTLGNLLQDPRCGLLFIDFDNGDLLHLHAEAELFWPGSQPSIPWPAGAERLLALRPAGWRWRRGRLPLAFGEPQPSPFLPAGES,not soluble
9,MSKLLLKTPCTTWTFDSLMACVFGIKVSDVKVYFDILKNGPSKINDIAERINRDRSTVQRAVQNLMNAGLVKRKQVNIKDGGYYYVYEAIPFEETKKIIKKTMEEWCNNMKKWVEELEFEDVVKEYLENIEE,not soluble
10,MSLHAVDHHAILARFAPSRGGDGNIFRDIDPSRLAHIVVDMQNGFMEEGAPVEVPVARTIVDNINRISAAVRDAGGHNVFLRYTTPPEGGPSWSNFMVRMGREAQGHREAFTPGAHHWQLWPTLDVREADAIVDKHRFSGFTPGTCALKDVLDARGIDTVLITGTLTNCCCESTARDAMQHNYRVLMASDANAALSDEEHAATLHIMAMVFADLHSTQEVVDLLGSEGHHHHHH,soluble
11,SGTPPGLQTDCEALLSRFQETDSVRFEDFTELWRNMKFGTIFCGRMRNLEKNMFTKEALALAWRYFLPPYTFQIRVGALYLLYGLYNTQLCQPKQKIRVALKDWDEVLKFQQDLVNAQHFDAAYIFRKLRLDRAFHFTAMPKLLSYRMKKKIHRAEVTEEFKDPSDRVMKLITSDVLEEMLNVHDHYQNMKHVISVDKSKPDKALSLIKDDFFDNIKNIVLEHQQWHKDRKNPSLKSKTNDGEEKMEGNSQETERCERAESLAKIKSKAFSVVIQASKSRRHRQVKLDSSDSDSASGQGQVKATRKKEKKERLKPAGRKMSLRNKGNVQNIHKEDKPLSLSMPVITEEEENESLSGTEFTASKKRRKH,soluble
12,MYSKILGTGSYLPSQVRTNADLEKMVETSDEWIVARTGIRERRIAADNETVADMAFFAAQNAINMAGIDKHDIDMIIVATTSASHTFPSAACQVQGKLGIKGCPAFDLAAACSGFMYALSIADQHVKSGMCKHVLVIGADALSKTCDPTDRSTIILFGDGAGAVVVGASNEPGILSTHIHADGEFGDLLSLEVPVRGGDSDKWLHMAGNEVFKVAVTQLSKLVVDTLKANNMHKSELDWLVPHQANYRIISATAKKLSMSLDQVVITLDRHGNTSAATVPTALDEAVRDGRIQRGQMLLLEAFGGGFTWGSALVKF,not soluble
13,TGKVHWSDELFNIFGRDPQKSAANYEELLNYIHPDDRDFVDGIIRNSFTGKRYGIDYRIIRDNGEERTVHAEKELIFDRN,not soluble
14,MAHHHHHHMGQAFMEDQGNSLVVWGSTGRRLQFSMQDLKMPASLRDTPHFHFYEKQWDAVASFWFNRVLKESALQHLSVEAIVELIRQDISKRWERRREEQSIYKKRKRLLQRSGPAGTPSASVLLTNVTTLDGYQAATEMEQRDLVTALVERVEDVANDKVESWQVLVDDASEQRPAKAARVEGTAATSGEHPENDADGASDFDDRVAVVLKLSSKEKAATTIAHLHGSRFDDRRVLCRFWSE,soluble
15,MDNHDDKSKSDRFCDINNNMTTQFDRLSINSDASLVITSSRLAMQGADETSDWTPNKYSWFKLVTPNPVETRVVQQKAQMKGLKIHKMVHNFIPSRKQGYLGYYNFDVKSYEESEKARNLFPTDFVDAFCCQHLLGKNEQEFVFHAVNENDLKILCCIATYCKETKLDAPLDPMQHLNNLNLFYEAINNERAFIIMKDFMSDNGMKYLCRLKKDITDIRDRRNNN,not soluble
16,MVEFVNDPNFKDLVVDTTIDNRNDEEPMTIRNFTELMIQFYKLGWMRGSGGAMGCISGSELMISPSALQKERIREQDVFVYNMKDKTEVQRPPNKRITVSSCSVLFSLIMKETGSECVIHTHSKCANLITQLIKSNVFEISHQEYIKGIYDPFSGKALKYSDTLTIPIIDNMPSESQLLVCAINRSPMQPDCFINIALFQEPIRGVLENYPQAIAVLVRNHGLFVWGPTWESTKIMTECIDYLLELSIEMLKNNIPLVNEEAFEKEDNLSDKMRTLMFGDMAPV,not soluble
17,KKIIHELLDDILFFETAPTIHKVILHGKNRQVEFYGKLKSIEKMLDESFYRCHRSYIVNKKNIHELDTTKGVVKMSNGENCYASSKLIKSLSL,not soluble
18,MGSDKIHHHHHHMKIAILTTNQAADDSRLVATARKKGHSANLLDLRQMSIALRPSVADIYYQNELITHHFDAIIPRLNVSYTDYGINLLQQFICSNTYVSESPEALRLGRDKLKCLQHLLSKGLPFPTTAIAYTPDFFNAIMQQLQLPLVVKLIESTEGTGVFLARTHKEVDNLCKTFSLAGVSYLIQEFIAEAAGHDVRAFVVGNRVVAAMQRDSQDDDFRANVSLGAHSSAVTLSADEQELVLKATQSIGVHVAGVDFVRSNRGPLLLEINVSPDFTGEQGIEAITLRDVAADIIDYTVQHAEAFYQGRSKY,not soluble
19,MGSDKIHHHHHHMANYPGIDTELLRTFVAIADHGGFTRAGEVVNRTQSAVSMQMKRLEEDVVQRQLFQREGRTLNLTAEGQVLLGYARRILKLHSEVFNTLREPHMVGVVKIGSPDDYVMRFLPGILSQFAQAYPLVQVEVHCEPSDLLLQRQDLDLTIVTRKPGTEIGTLLRHERLVWMEAIGFAPHEQKPMPLAMFNTHCFCRDWACNALDSVEREYRIAYTSSSMAAITAVVSAGLAVTAQFQSLATPELRILGDAEHLPHLPTASIVLLRNPKTPSPITECMADYIIDGFKP,not soluble
20,MVNGSLGSRETETSAVKMGKDNKEHKESKESKTVDNYEARMPAVLPFAKPLASKKLNKKVLKTVKKASKAKNVKRGVKEVVKALRKGEKGLVVIAGDISPADVISHIPVLCEDHSVPYIFIPSKQDLGAAGATKRPTSVVFIVPGSNKKKDGKNKEEEYKESFNEVVKEVQAL,soluble
21,PAKLGYWKIRGLQQPVRLLLEYLGEKYEEQIYERDDGEKWFSKKFELGLDLPNLPYYIDDKCKLTQSLAILRYIADKHGMIGTTSEERARVSMIEGAAVDLRQGISRISYQPKFEQLKEGYLKDLPTTMKMWSDFLGKNPYLRGTSVSHVDFMVYEALDAIRYLEPHCLDHFPNLQQFMSRIEALPSIKAYMESNRFIKWPLNGWHAQFGGGDAPP,soluble
22,MEYQLREIDESEKEITQQRKKNSVTTKNFDNLSNSNSQITEMTNEQGVIPLREKDLTINVGDNRNLKVEEFMTNFISNVFENKNALFLYCKYVLLFYGKELLNENNVESLNFEIIKGGITNILVKVEDNIHQNKYLIRLYGPKTSEIINREREKLISNILCDKNISKKIYVFFPNGRIEEFKDGYALSREDIKNKDFQKEIAENLRILHDIQLDDTIYKKLQALQNIQGNRSSFLWSTLWKYFNTLKEERQKKYSFNPKAYILKLIDFDMLESIITEIQELCCKKNSPVVLCHCDLLSSNIIKTEGSSISFIDFEYSCPMERAYDIANHFNEYAGFNCEWDLTPNRSEEYHFIKHYLKTDDEQLINQLIDEIQPFYVCSHIVWGLWALLQGLHSVIDFDFINYGMTRLTAAFSVKFRSKLEKN,not soluble
